B1: LINE1-mini (parent)
chain: GGCAGAGCUCAACACAGCGUGGCAAAGUGGCUGUGGCUAGACUGCC

Variants of: B1
Test: self-cleavage, relative activity (ratio to wild type); higher = more cleavage; in vitro, sequencing; the parent is a self-cleaving ribozyme

Question: With GGCAGAGGUCAACACAGCGUUGCAAAGUGGCUGUGGCUAGACUGCC [C8G G21U] as the variant, how does the self-cleavage read?
Answer: 0.13

Question: For GGCAGAGUUCAGCACAGCGUGGCAAAGUGGCUGUGGCUAGACUGCC [C8U A12G], which self-cleavage is on record?
Answer: 0.08

Question: Which self-cleavage does the source give for GGCAGAGUUCAUCACAGCGUGGCAAAGUGGCUGUGGCUAGACUGCC [C8U A12U] here?
Answer: 0.29

Question: For GGCAGAGUUCACCACAGCGUGGCAAAGUGGCUGUGGCUAGACUGCC [C8U A12C], which self-cleavage is on record?
Answer: 0.04

Question: Which self-cleavage does the source give for GGCAGAGGUCAACACAGCGUGGCAAAGUGGCUGUGGCUAGACCGCC [C8G U43C] here?
Answer: 0.02

Question: Which self-cleavage does the source give for GGCAGAGGUCAACACAGCGUGGCAAAGUGGCUGUGGCUAGACGGCC [C8G U43G] here?
Answer: 0.88

Question: For GGCAGAGGUCAACACAGCGUGGCAAAGUGGCUGUGGCUAGACAGCC [C8G U43A], which self-cleavage is on record?
Answer: 0.03

Question: Which self-cleavage does the source give for GGCAGAGGUCAACACAGCGUGGCAAAGUGACUGUGGCUAGACUGCC [C8G G30A] here?
Answer: 0.21

Question: For GGCAGAGGUCAACACAGCGUGGCAAAGUGCCUGUGGCUAGACUGCC [C8G G30C], which self-cleavage is on record?
Answer: 0.1

Question: Which self-cleavage does the source give for GGCAGAGGUCAACACAGCGUGGCAAAGUGUCUGUGGCUAGACUGCC [C8G G30U] here?
Answer: 0.2

Question: For GGCAGAGGUCAACACAGCGUGGCAAAGUGGCUGUGGCUAGACUUCC [C8G G44U], which self-cleavage is on record?
Answer: 0.04

Question: For GGCAGAGGUCAACACAGCGUGGCAAAGUGGCUGUGGCUAGACUCCC [C8G G44C], which self-cleavage is on record?
Answer: 0.05

Question: For GGCAGAGGUCAACACAGCGUGGCAAAGUGGCUGUGGCUAGACUACC [C8G G44A], which self-cleavage is on record?
Answer: 0.04

Question: Which self-cleavage does the source give for GGCAGAGGGCAACACAGCGUGGCAAAGUGGCUGUGGCUAGACUGCC [C8G U9G] here?
Answer: 0.12

Question: With GGCAGAGGACAACACAGCGUGGCAAAGUGGCUGUGGCUAGACUGCC [C8G U9A] as the variant, how does the self-cleavage read?
Answer: 0.21

Question: Which self-cleavage does the source give for GGCAGAGGCCAACACAGCGUGGCAAAGUGGCUGUGGCUAGACUGCC [C8G U9C] here?
Answer: 0.02

Question: For GGCAGAGUUCAACACAGCGUGGCAAAGUGGCUGUGGCUAGACUGCC [C8U], which self-cleavage is on record?
Answer: 0.29

Question: With GGCAGAGGUCAACACAGCGUGGCAAAGUGGCUGUGGCUACACUGCC [C8G G40C] as the variant, how does the self-cleavage read?
Answer: 0.09

Question: With GGCAGAGGUCAACACAGCGUGGCAAAGUGGCUGUGGCUAUACUGCC [C8G G40U] as the variant, how does the self-cleavage read?
Answer: 0.09

Question: With GGCAGAGGUCAACACAGCGUGGCAAAGUGGCUGUGGCUAAACUGCC [C8G G40A] as the variant, how does the self-cleavage read?
Answer: 0.13

Question: Which self-cleavage does the source give for GGCAGAGGUCAACACAGCGUGGCAAAGUGGCUGCGGCUAGACUGCC [C8G U34C] here?
Answer: 0.04

Question: With GGCAGAGGUCAACACAGCGUGGCAAAGUGGCUGGGGCUAGACUGCC [C8G U34G] as the variant, how does the self-cleavage read?
Answer: 0.08

Question: With GGCAGAGGUCAACACAGCGUGGCAAAGUGGCUGAGGCUAGACUGCC [C8G U34A] as the variant, how does the self-cleavage read?
Answer: 0.05

Question: With GGCAGAGGUCAACACAGCGUGGCAAAGUGGCUGUGCCUAGACUGCC [C8G G36C] as the variant, how does the self-cleavage read?
Answer: 0.08

Question: With GGCAGAGGUCAACACAGCGUGGCAAAGUGGCUGUGACUAGACUGCC [C8G G36A] as the variant, how does the self-cleavage read?
Answer: 0.18

Question: For GGCAGAGGUCAACACAGCGUGGCAAAGUGGCUGUGUCUAGACUGCC [C8G G36U], which self-cleavage is on record?
Answer: 0.07

Question: With GGCAGAGGUCAACACAGCGUGGCAAAGUGGCAGUGGCUAGACUGCC [C8G U32A] as the variant, how does the self-cleavage read?
Answer: 0.04

Question: With GGCAGAGGUCAACACAGCGUGGCAAAGUGGCCGUGGCUAGACUGCC [C8G U32C] as the variant, how does the self-cleavage read?
Answer: 0.06

Question: For GGCAGAGGUCAACACAGCGUGGCAAAGUGGCGGUGGCUAGACUGCC [C8G U32G], which self-cleavage is on record?
Answer: 0.06

Question: For GGCAGAGGUCAACACAGCGUGGCAAAGUGGCUGUGGCCAGACUGCC [C8G U38C], which self-cleavage is on record?
Answer: 0.05

Question: Which self-cleavage does the source give for GGCAGAGGUCAACACAGCGUGGCAAAGUGGCUGUGGCGAGACUGCC [C8G U38G] here?
Answer: 0.32

Question: Which self-cleavage does the source give for GGCAGAGGUCAACACAGCGUGGCAAAGUGGCUGUGGCAAGACUGCC [C8G U38A] here?
Answer: 0.06

Question: For GGCAGAGGUCAACACAGCGUGGCAAAGUGGCUCUGGCUAGACUGCC [C8G G33C], which self-cleavage is on record?
Answer: 0.04

Question: Which self-cleavage does the source give for GGCAGAGGUCAACACAGCGUGGCAAAGUGGCUUUGGCUAGACUGCC [C8G G33U] here?
Answer: 0.03

Question: Which self-cleavage does the source give for GGCAGAGGUCAACACAGCGUGGCAAAGUGGCUAUGGCUAGACUGCC [C8G G33A] here?
Answer: 0.12

Question: For GGCAGAGGUCAACACAGCGUGGCAAAGUGGCUGUUGCUAGACUGCC [C8G G35U], which self-cleavage is on record?
Answer: 0.2

Question: For GGCAGAGGUCAACACAGCGUGGCAAAGUGGCUGUAGCUAGACUGCC [C8G G35A], which self-cleavage is on record?
Answer: 0.13

Question: For GGCAGAGGUCAACACAGCGUGGCAAAGUGGCUGUCGCUAGACUGCC [C8G G35C], which self-cleavage is on record?
Answer: 0.06

Question: For GGCAGAGGUCAACACAGCGUGGCAAAGAGGCUGUGGCUAGACUGCC [C8G U28A], which self-cleavage is on record?
Answer: 0.05

Question: With GGCAGAGGUCAACACAGCGUGGCAAAGCGGCUGUGGCUAGACUGCC [C8G U28C] as the variant, how does the self-cleavage read?
Answer: 0.46

Question: With GGCAGAGGUCAACACAGCGUGGCAAAGGGGCUGUGGCUAGACUGCC [C8G U28G] as the variant, how does the self-cleavage read?
Answer: 0.06

Question: With GGCAGAGGUCAACACAGCGCGGCAAAGUGGCUGUGGCUAGACUGCC [C8G U20C] as the variant, how does the self-cleavage read?
Answer: 0.08

Question: Which self-cleavage does the source give for GGCAGAGGUCAACACAGCGGGGCAAAGUGGCUGUGGCUAGACUGCC [C8G U20G] here?
Answer: 0.09

Question: For GGCAGAGGUCAACACAGCGAGGCAAAGUGGCUGUGGCUAGACUGCC [C8G U20A], which self-cleavage is on record?
Answer: 0.08

Question: With GGCAGAGGUCAACACAGCGUGGCAAAGUAGCUGUGGCUAGACUGCC [C8G G29A] as the variant, how does the self-cleavage read?
Answer: 0.06

Question: For GGCAGAGGUCAACACAGCGUGGCAAAGUUGCUGUGGCUAGACUGCC [C8G G29U], which self-cleavage is on record?
Answer: 0.11

Question: For GGCAGAGGUCAACACAGCGUGGCAAAGUCGCUGUGGCUAGACUGCC [C8G G29C], which self-cleavage is on record?
Answer: 0.04

Question: With GGCAGAGGUCAACACAGCGUGGCAAAUUGGCUGUGGCUAGACUGCC [C8G G27U] as the variant, how does the self-cleavage read?
Answer: 0.11

Question: With GGCAGAGGUCAACACAGCGUGGCAAACUGGCUGUGGCUAGACUGCC [C8G G27C] as the variant, how does the self-cleavage read?
Answer: 0.1

Question: With GGCAGAGGUCAACACAGCGUGGCAAAAUGGCUGUGGCUAGACUGCC [C8G G27A] as the variant, how does the self-cleavage read?
Answer: 0.17

Question: Which self-cleavage does the source give for GGCAGAGUUCUACACAGCGUGGCAAAGUGGCUGUGGCUAGACUGCC [C8U A11U] here?
Answer: 0.03

Question: For GGCAGAGUUCGACACAGCGUGGCAAAGUGGCUGUGGCUAGACUGCC [C8U A11G], which self-cleavage is on record?
Answer: 0.03

Question: For GGCAGAGUUCCACACAGCGUGGCAAAGUGGCUGUGGCUAGACUGCC [C8U A11C], which self-cleavage is on record?
Answer: 0.07

Question: With GGCAGAGGUCAACACAGCGUGCCAAAGUGGCUGUGGCUAGACUGCC [C8G G22C] as the variant, how does the self-cleavage read?
Answer: 0.06

Question: With GGCAGAGGUCAACACAGCGUGACAAAGUGGCUGUGGCUAGACUGCC [C8G G22A] as the variant, how does the self-cleavage read?
Answer: 0.1

Question: With GGCAGAGGUCAACACAGCGUGUCAAAGUGGCUGUGGCUAGACUGCC [C8G G22U] as the variant, how does the self-cleavage read?
Answer: 0.09
